Assay results taken from publication doi:10.1101/2025.03.12.642038, “Structural, biophysical and biological analysis and characterisation of IRF4 DNA-binding domain mutations associated with multiple myeloma”.

Assays:
Assay in all cases: SPR steady state; FP: PBS + 0.05% Tween20, 5 nM DNA, 1 h, room temperature; SPR: Biacore S200, SA chip, protein 0.1-4500 nM, running buffer not given in material; errors are SD
IRF4 DBD C99S = target: T1, IRF4 DBD C99S (Homo sapiens, UniProt Q15306 20-132, C99S); conditions: protein: recombinant; label: 3' biotin; hairpin, TTTT loop
T1 sequence: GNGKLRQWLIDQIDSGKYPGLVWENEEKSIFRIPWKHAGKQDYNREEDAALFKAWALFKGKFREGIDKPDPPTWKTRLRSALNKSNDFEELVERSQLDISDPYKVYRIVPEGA

IRF4 DBD C99R = target: T2, IRF4 DBD C99R (Homo sapiens, UniProt Q15306 20-132, C99R); conditions: protein: recombinant; tags: N-terminal His8-linker-His8-TEV, cleaved; label: 3' biotin; hairpin, TTTT loop
T2 sequence: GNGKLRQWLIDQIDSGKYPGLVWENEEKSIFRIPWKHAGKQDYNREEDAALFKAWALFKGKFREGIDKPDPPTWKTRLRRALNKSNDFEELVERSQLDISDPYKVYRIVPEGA

IRF4 DBD S114N = target: T3, IRF4 DBD S114N (Homo sapiens, UniProt Q15306 20-132, S114N); conditions: protein: recombinant; tags: N-terminal His8-linker-His8-TEV, cleaved; label: 3' biotin; hairpin, TTTT loop
T3 sequence: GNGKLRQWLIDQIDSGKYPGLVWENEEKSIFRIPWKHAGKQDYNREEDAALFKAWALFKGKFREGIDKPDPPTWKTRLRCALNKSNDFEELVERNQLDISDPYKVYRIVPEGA

IRF4 DBD D117H = target: T4, IRF4 DBD D117H (Homo sapiens, UniProt Q15306 20-132, D117H); conditions: protein: recombinant; tags: N-terminal His8-linker-His8-TEV, cleaved; label: 3' biotin; hairpin, TTTT loop
T4 sequence: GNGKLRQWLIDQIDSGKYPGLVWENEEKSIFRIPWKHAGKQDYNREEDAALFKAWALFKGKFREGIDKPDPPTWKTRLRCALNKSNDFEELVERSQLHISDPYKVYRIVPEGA

IRF4 DBD L70V = target: T5, IRF4 DBD L70V (Homo sapiens, UniProt Q15306 20-132, L70V); conditions: protein: recombinant; tags: N-terminal His8-linker-His8-TEV, cleaved; label: 3' biotin; hairpin, TTTT loop
T5 sequence: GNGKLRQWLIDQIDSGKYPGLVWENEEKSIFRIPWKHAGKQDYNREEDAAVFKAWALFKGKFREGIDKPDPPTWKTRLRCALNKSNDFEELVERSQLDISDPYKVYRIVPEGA

IRF4 DBD T95A = target: T6, IRF4 DBD T95A (Homo sapiens, UniProt Q15306 20-132, T95A); conditions: protein: recombinant; tags: N-terminal His8-linker-His8-TEV, cleaved; label: 3' biotin; hairpin, TTTT loop
T6 sequence: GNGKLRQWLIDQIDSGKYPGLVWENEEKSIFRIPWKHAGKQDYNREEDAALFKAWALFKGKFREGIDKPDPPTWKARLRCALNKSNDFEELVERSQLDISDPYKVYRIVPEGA

IRF4 DBD C99A = target: T7, IRF4 DBD C99A (Homo sapiens, UniProt Q15306 20-132, C99A); conditions: protein: recombinant; tags: N-terminal His8-linker-His8-TEV, cleaved; label: 3' biotin; hairpin, TTTT loop
T7 sequence: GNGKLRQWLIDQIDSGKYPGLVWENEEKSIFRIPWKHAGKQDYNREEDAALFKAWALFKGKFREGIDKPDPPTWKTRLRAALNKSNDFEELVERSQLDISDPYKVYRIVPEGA

IRF4 DBD D106Y = target: T8, IRF4 DBD D106Y (Homo sapiens, UniProt Q15306 20-132, D106Y); conditions: protein: recombinant; tags: N-terminal His8-linker-His8-TEV, cleaved; label: 3' biotin; hairpin, TTTT loop
T8 sequence: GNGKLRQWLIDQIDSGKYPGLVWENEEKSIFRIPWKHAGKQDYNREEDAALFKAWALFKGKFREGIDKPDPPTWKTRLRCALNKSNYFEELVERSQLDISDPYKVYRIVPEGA

IRF4 DBD T95R = target: T9, IRF4 DBD T95R (Homo sapiens, UniProt Q15306 20-132, T95R); conditions: protein: recombinant; tags: N-terminal His8-linker-His8-TEV, cleaved; label: 3' biotin; hairpin, TTTT loop
T9 sequence: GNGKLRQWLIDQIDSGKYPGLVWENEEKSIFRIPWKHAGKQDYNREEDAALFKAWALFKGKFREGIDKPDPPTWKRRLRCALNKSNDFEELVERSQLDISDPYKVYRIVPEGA

IRF4 DBD wild-type = target: T10, IRF4 DBD wild-type (Homo sapiens, UniProt Q15306 20-132); conditions: protein: recombinant; tags: N-terminal His8-linker-His8-TEV, cleaved; label: 3' biotin; hairpin, TTTT loop
T10 sequence: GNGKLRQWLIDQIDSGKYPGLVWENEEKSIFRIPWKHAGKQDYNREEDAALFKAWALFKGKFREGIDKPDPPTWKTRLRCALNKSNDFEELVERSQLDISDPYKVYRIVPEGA

CTTGGTTTCACTTCCTGCGTTTTCGCAGGAAGTGAAACCAAG (structured_DNA) [IRE hairpin (biotin)]
Kd (IRF4 DBD C99S): 338 ± 173 nM
Kd (IRF4 DBD C99R): 546 ± 174 nM
Kd (IRF4 DBD S114N): 291 ± 79 nM
Kd (IRF4 DBD D117H): 247 ± 84 nM
Kd (IRF4 DBD L70V): 167 ± 82 nM
Kd (IRF4 DBD T95A): 186 ± 82 nM
Kd (IRF4 DBD C99A): 173 ± 60 nM
Kd (IRF4 DBD D106Y): 178 ± 43 nM
Kd (IRF4 DBD T95R): 449 ± 49 nM
Kd (IRF4 DBD wild-type): 402 ± 165 nM
